According to patent publication US20140079706A1 (published 2014):
Numbering of substitutions follows the chain as printed.

B1: Mab 2F11 (antibody, V domains shown)
VH: QVQLKESGPGLVAPSQSLSITCTVSGFSLTTYDISWIRQSPGKGLEWLGVIWTDGGTNYNSPFMSRLSIRKDNSKSQVFLKMNRLQTDDTAIYYCVRDQRLYFDVWGAGTTVTVSS
VL: NIVMTQSPKSMSMSVGERVTLNCKASEDVNTYVSWYQQQPEQSPKLLIYGASNRYTGVPDRFTGGGSTTDFTLTISSVQAEDLADYFCGQSFSYPTFGTGTKLEIK
notes: Murine monoclonal antibody from hybridoma; also called muMab 2F11
B2: Mab 2E10 (antibody, V domains shown)
VH: QVQLKESGPGLVAPSKSLSITCTVSGSSLDSFDISWIRQSPGKGLEWLGVIWTGGGTNYNSGFMSRLRITKDNSKSQVLLKMNSLQSDDTAIYYCVRDPRLYFDVWGAGTTVTVSS
VL: B1 VL with N22S, N30V, Q39K, E41D, G65S, T68A, F87Y, S91T
notes: Murine monoclonal antibody
B3: Mab 1G10 (antibody, V domains shown)
VH: B1 VH with Q1R, T31S, T53S, D54G, S68R, R70S, N73D, K75R, M82V, Q99L
VL: KIVMTQSPKSMSVSVGERVSLSCKASEDVGTYVSWYQQKPEQSPKLLIYGSSNRYTGVPDRFTGSGSATDFTLTISSVQAEDLADYSCGQSFTYPTFGTGTKLEIK
notes: Murine monoclonal antibody
B4: Mab 2H7 (antibody, V domains shown)
VH: B2 VH with S40P, T70S, L79F, N83S
VL: B1 VL with N22S, N30V, Q39K, G65S, T68A, V78I, F87Y, S91T
notes: Murine monoclonal antibody

What follows are binders tested against CSF-1R on cynomolgous monocytes (cynomolgous) (assay: cell-based or functional assay).

| Binder | % inhibition (of survival) = (100% - % survival), cynomolgous monocytes, 5 µg/ml antibody | % survival of cynomolgous monocytes at 5 µg/ml antibody (150 ng/ml huCSF-1, CellTiterGlo) |
| --- | --- | --- |
| B1 | 96% | 4% |
| B2 | 83% | 17% |
| B3 | 98% | 2% |
| B4 | 92% | 8% |

The binders below were run against T1, human CSF-1R fragment D1-D3 (human, UniProt P07333 20-311) (assay: SPR Biacore T100, 37°C; antibody captured, D1-D3 injected, single cycle kinetics).
T1 construct: Subcloned into pCMV-presS-HisAvitag expression vector
T1 sequence (P07333 20-311 limits assumed): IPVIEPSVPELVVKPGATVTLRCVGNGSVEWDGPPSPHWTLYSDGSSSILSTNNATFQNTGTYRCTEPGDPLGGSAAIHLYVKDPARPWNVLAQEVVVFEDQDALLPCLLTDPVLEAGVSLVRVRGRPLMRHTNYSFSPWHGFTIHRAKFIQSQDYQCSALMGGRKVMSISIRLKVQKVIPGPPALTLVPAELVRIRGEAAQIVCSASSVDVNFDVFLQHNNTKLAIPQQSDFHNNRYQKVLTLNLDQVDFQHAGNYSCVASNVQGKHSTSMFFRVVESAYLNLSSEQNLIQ
Method: Antibodies against CSF-1R were captured via amine coupled capture molecules. Using the single cycle kinetics five increasing concentrations of human CSF-1R fragment D1-D3 (SEQ ID NO: 66) were injected. Human CSF-1R fragment D1-D3 was subcloned into pCMV-presS-HisAvitag expression vector.
Single Cycle Kinetics was measured at a flow rate of 30 μL/min by five consecutive injections of the analyte with concentrations, c=7.8, 31.25, 125 500 and 2000 nM, without regeneration. Each injection was 30 seconds long and followed by a dissociation phase of 120 Seconds for the first four injections, and finally 1200 seconds for the highest concentration (=last injection).
Kinetic parameters were calculated by using the usual double referencing (control reference: binding of analyte to capture molecule; Flow Cell: subdomain CSF-1R concentration “0” as Blank) and calculation with model ‘titration kinetics 1:1 binding with draft’.

| Binder | binding result |
| --- | --- |
| B1 | no binding (tested: up to 2000 nM D1-D3) |
| B2 | no binding (tested: up to 2000 nM D1-D3) |
| B3 | no binding (tested: up to 2000 nM D1-D3) |
